Patent publication US20160017016A1 (AstraZeneca / MedImmune, published 2016)
*1 amine or outer side, *2 acyl side, *3 side chain or, on linkers, in order; H or OH if unused. Primed or numbered codes have the meaning given here. Where no end group is shown, it is not given here. Side-chain parts run from the residue outwards. [ ]: non-standard residue; d: D form. The star is where a group is joined. PEG4′ = 4 PEG units (K(PEGxpalm): Lys with x PEG units and palmitoyl at epsilon N, C-terminal (PEG)4); γGlu = O=C(O)[C@H](CCC(=O)[*:2])N[*:1]; Palmitoyl = CCCCCCCCCCCCCCCC(=O)*; PEG12′ = not defined here

Biological target: human GLP-1 receptor (GLP-1R) (human, UniProt P43220 24-463)
Assay: cell-based or functional assay

Point of comparison: HGQGTFTSDYSEYLDSK([γGlu-Palmitoyl])RAQDFVQWLV[PEG4′] [g695], “cAMP activity, GLP1 EC50 nM” value 0.2 nM. Against it:
- HSQGTFTSDYSKYLDSRRAXDFVQWLV (K(PEG4-palm) at 20; C-terminal PEG4) [g457] — 6.7-fold lower, 0.03 nM
- HSEGTFTSDYSKYK([γGlu-Palmitoyl])DSRRAQDFVQWLV[PEG4′] [g515] — 2-fold lower, 0.1 nM
- HSQGTFTSDYSKYLDSRK([γGlu-Palmitoyl])AQDFVQWLV[PEG4′] [g422] — the same, 0.2 nM
- HSQGTFTSDYSKYLDSXRAQDFVQWLE (K(PEG2-palm) at 17; C-terminal PEG4) [g502] — 6.7-fold lower, 0.03 nM
- HSQGTFTSDYSKYKDSRRAQDFVQWLV[PEG4′] (not fully specified (residue 14); printed as HSQGTFTSDYSKYB1DSRRAQDFVQWLVZ4) [g427] — 50-fold lower, 0.004 nM
- HGQGTFTSDYSKYLESK([γGlu-Palmitoyl])RAQDFVQWLV[PEG4′] [g498] — 3-fold higher, 0.6 nM
- HGQGTFTSDYSKYK([γGlu-Palmitoyl])DSRRAQDFVQWLV[PEG4′] [g514] — 2-fold lower, 0.1 nM
- HSQGTFTSDYSKYLDSRK([γGlu-Palmitoyl])AQDFVQWLE[PEG4′] [g454] — 2.5-fold higher, 0.5 nM
- HSQGTFTSDYSKYLDK([PEG4′-Palmitoyl])RRAQDFVQWLE[PEG4′] [g495] — 2.2-fold lower, 0.09 nM
- HGQGTFTSDYSKYLDSK([γGlu-Palmitoyl])RAQDFVEWLV[PEG4′] [g694] — 2.9-fold lower, 0.07 nM
- HSQGTFTSDYSKYLDSXRAQDFVQWLE (not fully specified; K(PEG4-palm) at 17; C-terminal PEG4) [g429] — 50-fold lower, 0.004 nM
- HGQGTFTSDYSKYLDSEK([γGlu-Palmitoyl])ARDFVAWLV[PEG4′] [g735] — 4-fold higher, 0.8 nM
- HSQGTFTSDYSKYLDK([PEG4′-Palmitoyl])SRARDFVAWLV[PEG4′] [g972] — 6.7-fold lower, 0.03 nM
- HSQGTFTSDYSKYLDSRKAQDFVQWLV[PEG4′] (not fully specified (residue 18); printed as HSQGTFTSDYSKYLDSRB1AQDFVQWLVZ4) [g423] — 20-fold lower, 0.01 nM
- HSQGTFTSDYSKYLDSK([γGlu-Palmitoyl])RAQRDFVAWLV[PEG12′] (not fully specified; printed as HSQGTFTSDYSKYLDSBRAQRDFVAWLVZ12) [g828] — 5-fold lower, 0.04 nM
- HGQGTFTSDYSKYLDSK([γGlu-Palmitoyl])RAEDFVQWLV[PEG4′] [g693] — 2-fold lower, 0.1 nM
- HSQGTFTSDYSXYLDSRRAQDFVQWLV (not fully specified; K(PEG4-palm) at 12; C-terminal PEG4) [g417] — 10-fold lower, 0.02 nM
- HSQGTFTSDYSKYLDSRRAQDFVQWLV (C-terminal 11-aminoundecanoic acid (Aud)) [g358] — 16-fold higher, 3.2 nM
- HSQGTFTSDYSRYLDSK([γGlu-Palmitoyl])RARDFVAWLV[PEG4′] [g827] — the same, 0.2 nM
- HSQGTFTSDYSKYLDSXRAQDFVQWLE (K(PEG3-palm) at 17; C-terminal PEG4) [g503] — 10-fold lower, 0.02 nM
- HSQGTFTSDYSKYLDK([γGlu-Palmitoyl])RRAQDFVQWLV[PEG4′] [g424] — 2-fold higher, 0.4 nM
- HSQGTFTSDYSKYLDSRRAQDFVQWLV (C-terminal 6-aminohexanoic acid (Ahx)) [g357] — 8-fold higher, 1.6 nM
- HSQGTFTSDYSKYLDKRRAQDFVQWLV[PEG4′] (not fully specified (residue 16); printed as HSQGTFTSDYSKYLDB1RRAQDFVQWLVZ4) [g425] — 25-fold lower, 0.008 nM

Biological target: human glucagon receptor (GCGR) (human, UniProt P47871 26-477)
Assay: cell-based or functional assay

Chain of human glucagon receptor (GCGR) (P47871 26-477): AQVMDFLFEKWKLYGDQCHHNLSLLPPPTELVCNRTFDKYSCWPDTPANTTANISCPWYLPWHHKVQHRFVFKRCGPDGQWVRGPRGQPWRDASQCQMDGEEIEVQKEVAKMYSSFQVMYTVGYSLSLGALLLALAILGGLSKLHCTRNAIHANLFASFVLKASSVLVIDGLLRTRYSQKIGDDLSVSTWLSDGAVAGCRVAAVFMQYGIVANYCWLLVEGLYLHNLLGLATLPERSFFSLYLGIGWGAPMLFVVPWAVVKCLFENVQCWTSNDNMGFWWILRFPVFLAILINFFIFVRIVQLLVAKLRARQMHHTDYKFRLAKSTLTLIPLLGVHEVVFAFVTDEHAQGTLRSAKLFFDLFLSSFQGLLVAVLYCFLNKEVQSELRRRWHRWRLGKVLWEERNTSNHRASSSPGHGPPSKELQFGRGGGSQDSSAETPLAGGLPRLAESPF

Point of comparison: HSQGTFTSDYSKYLDSK([γGlu-Palmitoyl])RAQRDFVAWLV[PEG12′] (not fully specified; printed as HSQGTFTSDYSKYLDSBRAQRDFVAWLVZ12) [g828], “cAMP activity, Glcg EC50 nM” value 0.02 nM. Against it:
- HSQGTFTSDYSKYLDSRRAXDFVQWLV (K(PEG4-palm) at 20; C-terminal PEG4) [g457] — 5-fold lower, 0.004 nM
- HSEGTFTSDYSKYK([γGlu-Palmitoyl])DSRRAQDFVQWLV[PEG4′] [g515] — 20-fold higher, 0.4 nM
- HSQGTFTSDYSKYLDSRK([γGlu-Palmitoyl])AQDFVQWLV[PEG4′] [g422] — 35-fold higher, 0.7 nM
- HSQGTFTSDYSKYLDSXRAQDFVQWLE (K(PEG2-palm) at 17; C-terminal PEG4) [g502] — 20-fold lower, 0.001 nM
- HSQGTFTSDYSKYKDSRRAQDFVQWLV[PEG4′] (not fully specified (residue 14); printed as HSQGTFTSDYSKYB1DSRRAQDFVQWLVZ4) [g427] — 10-fold lower, 0.002 nM
- HGQGTFTSDYSKYLESK([γGlu-Palmitoyl])RAQDFVQWLV[PEG4′] [g498] — 100-fold higher, 2 nM
- HGQGTFTSDYSKYK([γGlu-Palmitoyl])DSRRAQDFVQWLV[PEG4′] [g514] — the same, 0.02 nM
- HGQGTFTSDYSEYLDSK([γGlu-Palmitoyl])RAQDFVQWLV[PEG4′] [g695] — 200-fold higher, 4 nM
- HSQGTFTSDYSKYLDSRK([γGlu-Palmitoyl])AQDFVQWLE[PEG4′] [g454] — 4-fold higher, 0.08 nM
- HSQGTFTSDYSKYLDK([PEG4′-Palmitoyl])RRAQDFVQWLE[PEG4′] [g495] — 10-fold lower, 0.002 nM
- HGQGTFTSDYSKYLDSK([γGlu-Palmitoyl])RAQDFVEWLV[PEG4′] [g694] — 10-fold higher, 0.2 nM
- HSQGTFTSDYSKYLDSXRAQDFVQWLE (not fully specified; K(PEG4-palm) at 17; C-terminal PEG4) [g429] — 4-fold lower, 0.005 nM
- HGQGTFTSDYSKYLDSEK([γGlu-Palmitoyl])ARDFVAWLV[PEG4′] [g735] — higher, > 1800 nM
- HSQGTFTSDYSKYLDK([PEG4′-Palmitoyl])SRARDFVAWLV[PEG4′] [g972] — 1.5-fold higher, 0.03 nM
- HSQGTFTSDYSKYLDSRKAQDFVQWLV[PEG4′] (not fully specified (residue 18); printed as HSQGTFTSDYSKYLDSRB1AQDFVQWLVZ4) [g423] — 5-fold lower, 0.004 nM
- HGQGTFTSDYSKYLDSK([γGlu-Palmitoyl])RAEDFVQWLV[PEG4′] [g693] — higher, > 2 nM
- HSQGTFTSDYSXYLDSRRAQDFVQWLV (not fully specified; K(PEG4-palm) at 12; C-terminal PEG4) [g417] — 6.7-fold lower, 0.003 nM
- HSQGTFTSDYSKYLDSRRAQDFVQWLV (C-terminal 11-aminoundecanoic acid (Aud)) [g358] — 1.5-fold higher, 0.03 nM
- HSQGTFTSDYSRYLDSK([γGlu-Palmitoyl])RARDFVAWLV[PEG4′] [g827] — 2-fold higher, 0.04 nM
- HSQGTFTSDYSKYLDSXRAQDFVQWLE (K(PEG3-palm) at 17; C-terminal PEG4) [g503] — 10-fold lower, 0.002 nM
- HSQGTFTSDYSKYLDK([γGlu-Palmitoyl])RRAQDFVQWLV[PEG4′] [g424] — 2.2-fold lower, 0.009 nM
- HSQGTFTSDYSKYLDSRRAQDFVQWLV (C-terminal 6-aminohexanoic acid (Ahx)) [g357] — 4-fold higher, 0.08 nM
- HSQGTFTSDYSKYLDKRRAQDFVQWLV[PEG4′] (not fully specified (residue 16); printed as HSQGTFTSDYSKYLDB1RRAQDFVQWLVZ4) [g425] — 10-fold lower, 0.002 nM
